Experimental data as given in PMC5014597.
Like-named read-outs stand apart in the source and are kept apart here.

Assays:
[1] = biological target: TDP-43 C-terminal domain (residues 267-414), wild type (human) (UniProt Q13148); experiment: 15N CPMG relaxation dispersion NMR
[2] = biological target: TDP-43 C-terminal domain (residues 267-414), wild type (human) (UniProt Q13148); experiment: 15N CPMG relaxation dispersion NMR; remark: listed apart in the source
[3] = biological target: TDP-43 C-terminal domain (residues 267-414) M337V (human) (UniProt Q13148)

Row | kex (kon + koff, global exchange rate) [1] [s⁻¹] | koff [1] [s⁻¹] | kex (kon + koff, global exchange rate) [2] [s⁻¹] | koff [2] [s⁻¹] | decrease of turbidity of 20 µM CTD in 150 mM NaCl against wild type [3] [%] | Substance
1 | 1000 | 970 | 1200 | 1100 | – | TDP-43 C-terminal domain (residues 267-414), wild type (from UniProt Q13148 267-414) (domain or fragment)
2 | – | – | – | – | 50 | TDP-43 C-terminal domain (residues 267-414) M337V (from UniProt Q13148 267-414) (domain or fragment)
